Measurements taken from patent publication US20240343811A1 (SHANDONG SIMCERE BIOPHARMACUTICAL, published 2024).

Columns and labels:
[1] = target: T1, human CD16a (158V), full length, on cells (human, UniProt P08637 17-254); assay: FACS, biotinylated antibody
T1 construct: also used as target for the bought Jurkat-NFAT reporter line stably expressing human CD16a (158V); also called FlpinCHO-human CD16a (158V); FlpinCHO-CD16a (158V)
Target sequence in this assay (P08637 17-254 F176V limits assumed): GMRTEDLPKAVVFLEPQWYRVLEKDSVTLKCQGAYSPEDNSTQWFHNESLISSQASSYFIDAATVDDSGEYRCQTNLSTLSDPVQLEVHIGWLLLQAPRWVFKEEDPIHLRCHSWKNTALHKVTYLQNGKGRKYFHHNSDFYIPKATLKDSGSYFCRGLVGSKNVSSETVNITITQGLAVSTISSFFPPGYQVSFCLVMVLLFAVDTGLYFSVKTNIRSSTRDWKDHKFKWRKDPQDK

[2] = target: T2, human CD16a (158F), full length, on FlpinCHO cells (human, UniProt P08637 17-254); assay: FACS, biotinylated antibody
Target sequence in this assay (P08637 17-254 limits assumed): as the sequence (P08637 17-254 F176V limits assumed) above, with V160F counted along it

[3] = target: T1, human CD16a (158V), full length, on …; assay: FACS, biotinylated antibody, +10 mg/mL human immunoglobulin
Target sequence in this assay (P08637 17-254 F176V limits assumed): as the sequence (P08637 17-254 F176V limits assumed) above

[4] = target: T2, human CD16a (158F), full length, on …; assay: as above
Target sequence in this assay (P08637 17-254 limits assumed): as the sequence (P08637 17-254 F176V limits assumed) above, with V160F counted along it

[5] = target: T1, human CD16a (158V), full length, on …; assay: FACS on FlpinCHO cells
Method in brief: (§1)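 EC50 comes from fitted concentration–MFI curves. Antibody dilutions were bound to the cells for 1 hour on ice in PBS blocking buffer with 2% BSA, followed by washing and flow cytometric readout.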

[6] = target: T2, human CD16a (158F), full length, on …; assay: FACS on FlpinCHO cells
Method in brief: as §1

[7] = target: T3, CD16 on primary human NK cells (human, UniProt P08637 17-254); assay: FACS on human NK cells
T3 construct: whole, on cells; also called resting NK cells
Method in brief: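 EC50 came from curve fitting of flow-cytometric MFI. Antibody titrations were bound for 1 hour on ice to fresh human NK cells blocked in PBS with 2% (w/w) BSA (2×10⁶ cells/ml), followed by five PBS washes before acquisition.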

[8] = target: T3, CD16 on primary human NK cells; assay: FACS on human NK cells, biotinylated antibody, +10 mg/mL human immunoglobulin
Human CD16a (158F)-his = target: T4, Human CD16a (158F)-his (human); assay: SPR (Biacore), antibody captured on Protein A
T4 construct: entry holds ECD, AVI tag, linker and His tag
Method in brief: (§2)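 Protein A–captured antibody was probed with CD16-his ECD in HBS-EP+ at 25 °C: five 2-fold dilutions from 200 nM, 240 s at 30 μL/min, dissociation up to 600 s. Glycine pH 1.5 regenerated the chip. Apparent KD came from a double-referenced 1:1 Langmuir fit.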

Human CD16a (158V)-his = target: T5, Human CD16a (158V)-his (human); assay: SPR (Biacore), antibody captured on Protein A
T5 construct: entry holds ECD, AVI tag, linker and His tag
Method in brief: as §2

Human CD16b (NA1)-his = target: T6, Human CD16b (NA1)-his (human); assay: SPR (Biacore), antibody captured on Protein A
T6 construct: entry holds ECD, linker, His tag and AVI tag
T6 chain: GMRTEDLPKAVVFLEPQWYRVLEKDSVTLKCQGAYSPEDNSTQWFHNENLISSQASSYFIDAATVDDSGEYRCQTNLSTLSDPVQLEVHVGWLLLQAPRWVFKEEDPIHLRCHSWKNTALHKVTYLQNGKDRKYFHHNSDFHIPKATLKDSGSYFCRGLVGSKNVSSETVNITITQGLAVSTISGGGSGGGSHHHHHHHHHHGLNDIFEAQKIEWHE
Method in brief: as §2

B1: VHH06 VHH-Fc antibody (Fc fusion)
chain: EVQLVESGGGLVQAGGSLRLSCVASGSTWTTYAVRWYRQAPGKQREWVAFISVDGSTNYPDSVKGRFIVSRDNAKNTVYLQMNSLKPEDTADYICRVGGQYWGQGTQVTVSSEPKSSDKTHTCPPCPAPEFEGGPSVFLFPPKPKDTLMISRTPEVTCVVVAVSHEDPEVKFNWYVDGVEVHNAKTKPREEQYNSTYRVVSVLTVLHQDWLNGKEYKCKVSNKALPAPIEKTISKAKGQPREPQVYTLPPSREEMTKNQVSLTCLVKGFYPSDIAVEWESNGQPENNYKTTPPVLDSDGSFFLYSKLTVDKSRWQQGNVFSCSVMHEALHNHYTQKSLSLSPGK
[1]
  EC50: 0.79 nM
  Maximum mean fluorescence intensity: 13300
[2]
  EC50: 0.39 nM
  Maximum mean fluorescence intensity: 9740
[3]
  EC50: 1.77 nM
  Maximum mean fluorescence intensity: 14500
[4]
  EC50: 1.66 nM
  Maximum mean fluorescence intensity: 10700
[5]
  EC50: 0.66 nM
  Maximum mean fluorescence intensity: 8110
[6]
  EC50: 0.58 nM
  Maximum mean fluorescence intensity: 7070
[7]
  EC50: 0.54 nM
  Maximum mean fluorescence intensity: 2600
[8]
  EC50: 3.9 nM
  Maximum mean fluorescence intensity: 80000
Human CD16a (158F)-his
  Kd: 5.84 nM
  koff: 0.000374 s⁻¹
  kon: 64000 M⁻¹ s⁻¹
Human CD16a (158V)-his
  Kd: 1.96 nM
  koff: 0.000213 s⁻¹
  kon: 109000 M⁻¹ s⁻¹
Human CD16b (NA1)-his
  Kd: 8.63 nM
  koff: 0.00113 s⁻¹
  kon: 130000 M⁻¹ s⁻¹

B2: VHH11 VHH-Fc antibody (Fc fusion)
chain: EVQVVESGGGLAQAGGSLRLSCAVSGITFSSYAMGWYRQDPGKQRELVAAINRFGLTNYADSVKGRFTISRDNAKNTVYLQMTSLKPEDTAVYYCNTGGVYSHPNYYTGTYWGQGTQVTVSSEPKSSDKTHTCPPCPAPEFEGGPSVFLFPPKPKDTLMISRTPEVTCVVVAVSHEDPEVKFNWYVDGVEVHNAKTKPREEQYNSTYRVVSVLTVLHQDWLNGKEYKCKVSNKALPAPIEKTISKAKGQPREPQVYTLPPSREEMTKNQVSLTCLVKGFYPSDIAVEWESNGQPENNYKTTPPVLDSDGSFFLYSKLTVDKSRWQQGNVFSCSVMHEALHNHYTQKSLSLSPGK
[1]
  EC50: 0.36 nM
  Maximum mean fluorescence intensity: 10700
[2]
  EC50: 0.2 nM
  Maximum mean fluorescence intensity: 7240
[3]
  EC50: 1.12 nM
  Maximum mean fluorescence intensity: 10800
[4]
  EC50: 0.75 nM
  Maximum mean fluorescence intensity: 6720
[5]
  EC50: 0.33 nM
  Maximum mean fluorescence intensity: 6240
[6]
  EC50: 0.28 nM
  Maximum mean fluorescence intensity: 5670
[7]
  EC50: 0.33 nM
  Maximum mean fluorescence intensity: 2660
[8]
  EC50: 2.31 nM
  Maximum mean fluorescence intensity: 62300
Human CD16a (158F)-his
  Kd: 42.9 nM
  koff: 0.0235 s⁻¹
  kon: 548000 M⁻¹ s⁻¹
Human CD16a (158V)-his
  Kd: 32 nM
  koff: 0.0491 s⁻¹
  kon: 1.53e+06 M⁻¹ s⁻¹
Human CD16b (NA1)-his
  Kd: 6010 nM
  koff: 0.259 s⁻¹
  kon: 43100 M⁻¹ s⁻¹

B3: VHH12 VHH-Fc antibody (Fc fusion)
chain: QVQLVESGGGLVQAGGSLRLSCAASGITFSSYAMGWYRQAPGKQRELVAAINRFGLTNYADFVKGRFTISRVNAKNTVYLQMTSLKPEDTAVYYCNTGGVYSHPDYYTGTYWGQGTQVTVSSEPKSSDKTHTCPPCPAPEFEGGPSVFLFPPKPKDTLMISRTPEVTCVVVAVSHEDPEVKFNWYVDGVEVHNAKTKPREEQYNSTYRVVSVLTVLHQDWLNGKEYKCKVSNKALPAPIEKTISKAKGQPREPQVYTLPPSREEMTKNQVSLTCLVKGFYPSDIAVEWESNGQPENNYKTTPPVLDSDGSFFLYSKLTVDKSRWQQGNVFSCSVMHEALHNHYTQKSLSLSPGK
[1]
  EC50: 0.16 nM
  Maximum mean fluorescence intensity: 7950
[2]
  EC50: 0.12 nM
  Maximum mean fluorescence intensity: 5410
[3]
  EC50: 0.97 nM
  Maximum mean fluorescence intensity: 8140
[4]
  EC50: 0.81 nM
  Maximum mean fluorescence intensity: 5310
[5]
  EC50: 0.21 nM
  Maximum mean fluorescence intensity: 6680
[6]
  EC50: 0.16 nM
  Maximum mean fluorescence intensity: 6090
[7]
  EC50: 0.21 nM
  Maximum mean fluorescence intensity: 2680
[8]
  EC50: 1.82 nM
  Maximum mean fluorescence intensity: 48900
Human CD16a (158F)-his
  Kd: 13.3 nM
  koff: 0.0117 s⁻¹
  kon: 878000 M⁻¹ s⁻¹
Human CD16a (158V)-his
  Kd: 10.8 nM
  koff: 0.0201 s⁻¹
  kon: 1.86e+06 M⁻¹ s⁻¹
Human CD16b (NA1)-his
  Kd: 1500 nM
  koff: 0.154 s⁻¹
  kon: 103000 M⁻¹ s⁻¹
